# Experimental data published in article PMC8041999 (2021).
# B1: FLAG-tagged KIR2DL2, full-length, wild type, on 293T cells [human] / HLA-C*07:02-RL9 tetramer (phycoerythrin-conjugated) [modified: biotin (enzymatically, with biotin ligase)] [human | not stated] (parent complex)
# chain 1: HEGVHRKPSLLAHPGRLVKSEETVILQCWSDVRFEHFLLHREGKFKDTLHLIGEHHDGVSKANFSIGPMMQDLAGTYRCYGSVTHSPYQLSAPSDPLDIVITGLYEKPSLSAQPGPTVLAGESVTLSCSSRSSYDMYHLSREGEAHECRFSAGPKVNGTFQADFPLGPATHGGTYRCFGSFRDSPYEWSNSSDPLLVSVIGNPSNSWPSPTEPSSKTGNPRHLHILIGTSVVIILFILLFFLLHRWCSNKKNAAVMDQESAGNRTANSEDSDEQDPQEVTYTQLNHCVFTQRKITRPSQRPKTPPTDIIVYAELPNAESRSKVVSCP
# chain 2: not shown
# chain 3: not shown
# chain 4: RYRPGTVAL
# B2: FLAG-tagged KIR2DL3, full-length, wild type, on 293T cells [human] / HLA-C*07:02-RL9 tetramer (phycoerythrin-conjugated) [modified: biotin (enzymatically, with biotin ligase)] [human | not stated] (parent complex)
# chain 1: HEGVHRKPSLLAHPGPLVKSEETVILQCWSDVRFQHFLLHREGKFKDTLHLIGEHHDGVSKANFSIGPMMQDLAGTYRCYGSVTHSPYQLSAPSDPLDIVITGLYEKPSLSAQPGPTVLAGESVTLSCSSRSSYDMYHLSREGEAHERRFSAGPKVNGTFQADFPLGPATHGGTYRCFGSFRDSPYEWSNSSDPLLVSVTGNPSNSWPSPTEPSSETGNPRHLHVLIGTSVVIILFILLLFFLLHRWCCNKKNAVVMDQEPAGNRTVNREDSDEQDPQEVTYAQLNHCVFTQRKITRPSQRPKTPPTDIIVYTELPNAEP
# chain 2: not shown
# chain 3: not shown
# chain 4: RYRPGTVAL
# B3: FLAG-tagged KIR2DL2, full-length, wild type, on 293T cells [human] / HLA-C*03:04-GL9 tetramer (phycoerythrin-conjugated) [modified: biotin (enzymatically, with biotin ligase)] [human] (parent complex)
# chain 1: B1 chain 1
# chain 2: not shown
# chain 3: not shown
# chain 4: GAVDPLLAL
# B4: FLAG-tagged KIR2DL3, full-length, wild type, on 293T cells [human] / HLA-C*03:04-GL9 tetramer (phycoerythrin-conjugated) [modified: biotin (enzymatically, with biotin ligase)] [human] (parent complex)
# chain 1: B2 chain 1
# chain 2: not shown
# chain 3: not shown
# chain 4: GAVDPLLAL
# Variants of: B1
# Experiment: flow cytometry, HLA tetramer staining of transfected 293T cells; percentage tetramer+ normalised to percentage FLAG+; read off a plot
row,Variant,ratio to parent
1,chain 1 D72A,~1.3
2,chain 1 Y105A,~0.01
3,chain 1 F45A,~1.1
4,chain 1 D183A,~0.67
5,chain 1 D135A,~1.2
6,chain 1 S133A,~1.2
7,chain 1 E106A,~1.2
8,chain 1 K44A,~1.1
9,chain 1 L104A,~0.67
10,chain 1 S132A,~1
11,chain 1 M70A,~0.92
12,chain 1 E21A,~1

# Variants of: B2
# Experiment: as above
row,Variant,ratio to parent
1,chain 1 F45A,~0.72
2,chain 1 D183A,~0.33
3,chain 1 E106A,~0.85
4,chain 1 Y105A,~0.02
5,chain 1 S133A,~1.2
6,chain 1 D72A,~1.1
7,chain 1 L104A,~0.4
8,chain 1 E21A,~0.97
9,chain 1 K44A,~0.9
10,chain 1 M70A,~1.3
11,chain 1 S132A,~1.1
12,chain 1 D135A,~0.57

# Variants of: B3
# Experiment: as above
row,Variant,ratio to parent
1,chain 1 M70A,~1
2,chain 1 L104A,~0.02
3,chain 1 D72A,~1.1
4,chain 1 D183A,~0.02
5,chain 1 D135A,~0.03
6,chain 1 S132A,~1
7,chain 1 F45A,~0.03
8,chain 1 Y105A,~0.01
9,chain 1 K44A,~0.95
10,chain 1 E21A,~0.88
11,chain 1 E106A,~0.93
12,chain 1 S133A,~0.17

# Variants of: B4
# Experiment: as above
row,Variant,ratio to parent
1,chain 1 E106A,~0.82
2,chain 1 S133A,~0.57
3,chain 1 E21A,~0.92
4,chain 1 D72A,~1
5,chain 1 M70A,~1.1
6,chain 1 L104A,~0.05
7,chain 1 Y105A,~0.02
8,chain 1 S132A,~1.2
9,chain 1 F45A,~0.04
10,chain 1 D135A,~0.1
11,chain 1 K44A,~0.6
12,chain 1 D183A,~0.05
